In paper PMC6405639:

Target: 5(6)-TAMRA-Ahx(5-24)NPY (porcine)
Experiment: fluorescence polarisation; homogenous binding assay; 5 nM 5(6)-TAMRA-Ahx(5-24)NPY with increasing concentrations of affinity purified Y2R_cysteine_deficient in Brij-58 micelles in binding buffer, 60 min, room temperature; fall of fluorescence in the S-plane; the paper says that the EC50 constitutes the Kd

B1: Y2R_cysteine_deficient with C-terminal deca-histidine-tag (cell-free expressed) (receptor)
chain: MGPIGAEADENQTVEEMKVEQYGPQTTPRGELVPDPEPELIDSTKLIEVQVVLILAYASIILLGVIGNSLVIHVVIKFKSMRTVTNFFIANLAVADLLVNTLSLPFTLTYTLMGEWKMGPVLCHLVPYAQGLAVQVSTITLTVIALDRHRSIVYHLESKISKRISFLIIGLAWGISALLASPLAIFREYSLIEIIPDFEIVACTEKWPGEEKSIYGTVYSLSSLLILYVLPLGIISFSYTRIWSKLKNHVSPGAANDHYHQRRQKTTKMLVAVVVVFAVSWLPLHAFQLAVDIDSQVLDLKEYKLIFTVFHIIAMASTFANPLLYGWMNSNYRKAFLSAFRAEQRLDAIHSEVSVTFKAKKNLEVRKNSGPNDSFTEATNV
  EC50: 49 nM
